Test results reported in paper PMC11865472.
Changes are numbered by the printed parent chain. Numbers in names are those of the source. Blank lines part the entries; values can stand above or below the binder they belong to.

Tests used:
[1] = target: T1, rat betaglycan ZP-C domain (BG_(ZP-C)), mammalian-expressed; experiment: SPR; settings: chain shown with the change; analyte: BGZP-C; parent: est. 95; read off a plot
T1 chain: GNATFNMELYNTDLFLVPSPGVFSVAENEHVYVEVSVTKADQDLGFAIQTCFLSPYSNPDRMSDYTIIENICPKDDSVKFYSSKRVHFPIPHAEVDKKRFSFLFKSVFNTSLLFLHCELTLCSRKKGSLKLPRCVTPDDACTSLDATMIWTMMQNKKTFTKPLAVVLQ

[2] = target: T2, TGF-β2 (growth factor domain, wild type) (human); experiment: SPR; TGF-β2 immobilised on the chip surface; ratBGO, zfBGO, ratBGO-zfBL or ratBGO-Y248A injected, 2-fold dilution series 500 - 31.3 nM; three consecutive repeats
T2 sequence (P61812 303-414, looked up): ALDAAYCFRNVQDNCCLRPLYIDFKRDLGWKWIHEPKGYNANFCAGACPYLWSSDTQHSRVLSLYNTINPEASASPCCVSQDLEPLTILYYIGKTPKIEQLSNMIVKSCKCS

[3] = target: T3, inhibin A (InhA), mature heterodimer, unlabelled, P05111;P08476; experiment: SPR; settings: chain shown with the change
T3 chain 1: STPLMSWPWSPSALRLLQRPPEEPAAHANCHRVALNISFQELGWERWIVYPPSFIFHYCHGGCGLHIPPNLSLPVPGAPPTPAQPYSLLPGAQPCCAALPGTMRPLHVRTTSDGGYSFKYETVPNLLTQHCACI
T3 chain 2: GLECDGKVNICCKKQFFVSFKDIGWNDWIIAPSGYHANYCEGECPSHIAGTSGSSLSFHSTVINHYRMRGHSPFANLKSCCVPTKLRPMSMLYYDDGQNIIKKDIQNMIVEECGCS

[4] = target: TGF-β2 (Q57A, K60A, L64A) (human); experiment: SPR; BIAcore T200; TGF-β2 WT or TGF-β2 mutants amine-coupled (EDC-NHS) to a CM4 chip, max 400 RU; zfBGO WT or BGZP-C WT injected, 2-fold dilution series 250 - 15.6 nM; 10 mM CHES, 150 mM NaCl, 3 mM EDTA, 0.01% P20, pH 8.0; 100 µl/min; 1:1 kinetic model with drift; three consecutive repeats
[5] = target: TGF-β2 (Y50A, L51A) (human); experiment: as above
[6] = target: T2, TGF-β2 (growth factor domain, wild type) (human); experiment: as above
[7] = surface: InhA, parent: est. 1100 nM, read off a plot

B1: TGF-β2 homodimer (growth factor domain), unlabelled Y50A; L51A (protein)
chain: T2 sequence (P61812 303-414, looked up) with Y50A, L51A
- Kd [1]: 110 nM

B2: rat betaglycan orphan domain (ratBGO), wild type (domain or fragment)
chain: CELSPINASHPVQALMESFTVLSGCASRGTTGLPREVHVLNLRSTDQGPGQRQREVTLHLNPIASVHTHHKPIVFLLNSPQPLVWHLKTERLAAGVPRLFLVSEGSVVQFPSGNFSLTAETEERNFPQENEHLLRWAQKEYGAVTSFTELKIARNIYIKVGEDQVFPPTCNIGKNFLSLNYLAEYLQPKAAEGCVLPSQPHEKEVHIIELITPSSNPYSAFQVDIIVDIRPAQEDPEVVKNLVLILKCKKSVNWVIKSFDVKGNLKVIAPNSIGFGKESERSMTMTKLVRDDIPSTQENLMKWALDNGYRPVTSYTMAPVANRFHLRLEN
- Kd [2]: 72 nM

B4: rat betaglycan ZP-C domain (BG_(ZP-C)), mammalian-expressed N82Y (protein)
chain: T1 chain with N70Y
- Kd [3, 7]: 850 nM

B5: rat betaglycan ZP-C domain (BG_(ZP-C)), mammalian-expressed A158E (protein)
chain: T1 chain with A146E
- Kd ([3]; 500 - 15.6 nM, 2-fold dilution series): 1810 nM
- Kd [3, 7]: 1800 nM

Now from value to binder:

- Kd [2]: 102 nM
B3: ratBGO-Y248A (domain or fragment)
chain: B2 chain with Y218A

- Kd [4]: 99 nM
- Kd [5]: 113 nM
- Kd [6]: 95 nM
B6: rat betaglycan ZP-C domain (BGZP-C), wild type (domain or fragment)
chain: T1 chain
